Reference: the Human Domainome abundance scans (Beltran et al. 2025)
± gives the uncertainty stated by the source.

B1: Mineralocorticoid receptor, residues 600 to 675; numbered along this chain, P08235 (parent)
chain: SKICLVCGDEASGCHYGVVTCGSCKVFFKRAVEGQHNYLCAGRNDCIIDKIRRKNCPACRLQKCLQAGMNLGARKS

Variants of: B1
Experiment: abundance fitness (aPCA) (normalised: wild type 0, dead -1); higher = more abundant; growth selection in yeast, the domain comes from the species named
Details: Homo sapiens
With SKFCLVCGDEASGCHYGVVTCGSCKVFFKRAVEGQHNYLCAGRNDCIIDKIRRKNCPACRLQKCLQAGMNLGARKS the abundance fitness was -0.04 ± 0.12.
With SKECLVCGDEASGCHYGVVTCGSCKVFFKRAVEGQHNYLCAGRNDCIIDKIRRKNCPACRLQKCLQAGMNLGARKS the abundance fitness was -0.146 ± 0.055.
Work on SKLCLVCGDEASGCHYGVVTCGSCKVFFKRAVEGQHNYLCAGRNDCIIDKIRRKNCPACRLQKCLQAGMNLGARKS yielded an abundance fitness of -0.239 ± 0.043.
For SKQCLVCGDEASGCHYGVVTCGSCKVFFKRAVEGQHNYLCAGRNDCIIDKIRRKNCPACRLQKCLQAGMNLGARKS, the abundance fitness was -0.152 ± 0.05.
In the case of SKYCLVCGDEASGCHYGVVTCGSCKVFFKRAVEGQHNYLCAGRNDCIIDKIRRKNCPACRLQKCLQAGMNLGARKS, the abundance fitness is reported as -0.027 ± 0.071.
SKNCLVCGDEASGCHYGVVTCGSCKVFFKRAVEGQHNYLCAGRNDCIIDKIRRKNCPACRLQKCLQAGMNLGARKS gave an abundance fitness of -0.022 ± 0.072.
Variant SKTCLVCGDEASGCHYGVVTCGSCKVFFKRAVEGQHNYLCAGRNDCIIDKIRRKNCPACRLQKCLQAGMNLGARKS has an abundance fitness of -0.164 ± 0.056.
For SKSCLVCGDEASGCHYGVVTCGSCKVFFKRAVEGQHNYLCAGRNDCIIDKIRRKNCPACRLQKCLQAGMNLGARKS, the abundance fitness was -0.128 ± 0.04.
Work on SKCCLVCGDEASGCHYGVVTCGSCKVFFKRAVEGQHNYLCAGRNDCIIDKIRRKNCPACRLQKCLQAGMNLGARKS yielded an abundance fitness of -0.172 ± 0.073.
Work on SKACLVCGDEASGCHYGVVTCGSCKVFFKRAVEGQHNYLCAGRNDCIIDKIRRKNCPACRLQKCLQAGMNLGARKS yielded an abundance fitness of -0.157 ± 0.044.
Work on SKHCLVCGDEASGCHYGVVTCGSCKVFFKRAVEGQHNYLCAGRNDCIIDKIRRKNCPACRLQKCLQAGMNLGARKS yielded an abundance fitness of -0.11 ± 0.066.
Work on SKDCLVCGDEASGCHYGVVTCGSCKVFFKRAVEGQHNYLCAGRNDCIIDKIRRKNCPACRLQKCLQAGMNLGARKS yielded an abundance fitness of -0.062 ± 0.085.
SKKCLVCGDEASGCHYGVVTCGSCKVFFKRAVEGQHNYLCAGRNDCIIDKIRRKNCPACRLQKCLQAGMNLGARKS gave an abundance fitness of -0.196 ± 0.057.
Work on SKGCLVCGDEASGCHYGVVTCGSCKVFFKRAVEGQHNYLCAGRNDCIIDKIRRKNCPACRLQKCLQAGMNLGARKS yielded an abundance fitness of -0.162 ± 0.04.
SKRCLVCGDEASGCHYGVVTCGSCKVFFKRAVEGQHNYLCAGRNDCIIDKIRRKNCPACRLQKCLQAGMNLGARKS gave an abundance fitness of -0.225 ± 0.035.
Work on SKPCLVCGDEASGCHYGVVTCGSCKVFFKRAVEGQHNYLCAGRNDCIIDKIRRKNCPACRLQKCLQAGMNLGARKS yielded an abundance fitness of -0.453 ± 0.06.
Work on SKVCLVCGDEASGCHYGVVTCGSCKVFFKRAVEGQHNYLCAGRNDCIIDKIRRKNCPACRLQKCLQAGMNLGARKS yielded an abundance fitness of -0.166 ± 0.041.
Variant SKWCLVCGDEASGCHYGVVTCGSCKVFFKRAVEGQHNYLCAGRNDCIIDKIRRKNCPACRLQKCLQAGMNLGARKS has an abundance fitness of -0.315 ± 0.053.
With SKMCLVCGDEASGCHYGVVTCGSCKVFFKRAVEGQHNYLCAGRNDCIIDKIRRKNCPACRLQKCLQAGMNLGARKS the abundance fitness was -0.192 ± 0.054.
In the case of SRICLVCGDEASGCHYGVVTCGSCKVFFKRAVEGQHNYLCAGRNDCIIDKIRRKNCPACRLQKCLQAGMNLGARKS, the abundance fitness is reported as -0.083 ± 0.041.
SFICLVCGDEASGCHYGVVTCGSCKVFFKRAVEGQHNYLCAGRNDCIIDKIRRKNCPACRLQKCLQAGMNLGARKS showed an abundance fitness of -0.267 ± 0.18.
With STICLVCGDEASGCHYGVVTCGSCKVFFKRAVEGQHNYLCAGRNDCIIDKIRRKNCPACRLQKCLQAGMNLGARKS the abundance fitness was -0.049 ± 0.06.
Work on SSICLVCGDEASGCHYGVVTCGSCKVFFKRAVEGQHNYLCAGRNDCIIDKIRRKNCPACRLQKCLQAGMNLGARKS yielded an abundance fitness of -0.161 ± 0.051.
For SEICLVCGDEASGCHYGVVTCGSCKVFFKRAVEGQHNYLCAGRNDCIIDKIRRKNCPACRLQKCLQAGMNLGARKS, the abundance fitness was -0.072 ± 0.057.
SLICLVCGDEASGCHYGVVTCGSCKVFFKRAVEGQHNYLCAGRNDCIIDKIRRKNCPACRLQKCLQAGMNLGARKS gave an abundance fitness of -0.099 ± 0.049.
SYICLVCGDEASGCHYGVVTCGSCKVFFKRAVEGQHNYLCAGRNDCIIDKIRRKNCPACRLQKCLQAGMNLGARKS showed an abundance fitness of -0.085 ± 0.098.
With SHICLVCGDEASGCHYGVVTCGSCKVFFKRAVEGQHNYLCAGRNDCIIDKIRRKNCPACRLQKCLQAGMNLGARKS the abundance fitness was -0.109 ± 0.078.
For SVICLVCGDEASGCHYGVVTCGSCKVFFKRAVEGQHNYLCAGRNDCIIDKIRRKNCPACRLQKCLQAGMNLGARKS, the abundance fitness was -0.142 ± 0.043.
Work on SAICLVCGDEASGCHYGVVTCGSCKVFFKRAVEGQHNYLCAGRNDCIIDKIRRKNCPACRLQKCLQAGMNLGARKS yielded an abundance fitness of -0.066 ± 0.048.
Variant SMICLVCGDEASGCHYGVVTCGSCKVFFKRAVEGQHNYLCAGRNDCIIDKIRRKNCPACRLQKCLQAGMNLGARKS has an abundance fitness of -0.075 ± 0.055.
Variant SNICLVCGDEASGCHYGVVTCGSCKVFFKRAVEGQHNYLCAGRNDCIIDKIRRKNCPACRLQKCLQAGMNLGARKS has an abundance fitness of 0.002 ± 0.061.
Work on SGICLVCGDEASGCHYGVVTCGSCKVFFKRAVEGQHNYLCAGRNDCIIDKIRRKNCPACRLQKCLQAGMNLGARKS yielded an abundance fitness of -0.163 ± 0.042.
With SIICLVCGDEASGCHYGVVTCGSCKVFFKRAVEGQHNYLCAGRNDCIIDKIRRKNCPACRLQKCLQAGMNLGARKS the abundance fitness was -0.041 ± 0.065.
SQICLVCGDEASGCHYGVVTCGSCKVFFKRAVEGQHNYLCAGRNDCIIDKIRRKNCPACRLQKCLQAGMNLGARKS gave an abundance fitness of 0.118 ± 0.067.
SDICLVCGDEASGCHYGVVTCGSCKVFFKRAVEGQHNYLCAGRNDCIIDKIRRKNCPACRLQKCLQAGMNLGARKS showed an abundance fitness of -0.062 ± 0.063.
SWICLVCGDEASGCHYGVVTCGSCKVFFKRAVEGQHNYLCAGRNDCIIDKIRRKNCPACRLQKCLQAGMNLGARKS gave an abundance fitness of -0.246 ± 0.063.
